Substitutions are numbered along the chain they refer to. In names and notes the source's numbering stands.
B1: TWIST1 (wild type, Myc-His tagged) (other, not shown: small tags and cut ends)
chain: MMQDVSSSPVSPADDSLSNSEEEPDRQQPPSGKRGGRKRRSSRRSAGGGAGPGGAAGGGVGGGDEPGSPAQGKRGKKSAGCGGGGGAGGGGGSSSGGGSPQSYEELQTQRVMANVRERQRTQSLNEAFAALRKIIPTLPSDKLSKIQTLKLAARYIDFLYQVLQSDELDSKMASCSYVAHERLSYAFSVWRMEGAWSMSASH
B2: TWIST1 W190A (other, not shown: small tags and cut ends)
chain: B1 chain with W190A
B3: TWIST1 E193A (other, not shown: small tags and cut ends)
chain: B1 chain with E193A
B4: TWIST1 R191A (other, not shown: small tags and cut ends)
chain: B1 chain with R191A

Target: RELA (wild type) (UniProt Q04206 1-551)
Sequence (Q04206 whole entry): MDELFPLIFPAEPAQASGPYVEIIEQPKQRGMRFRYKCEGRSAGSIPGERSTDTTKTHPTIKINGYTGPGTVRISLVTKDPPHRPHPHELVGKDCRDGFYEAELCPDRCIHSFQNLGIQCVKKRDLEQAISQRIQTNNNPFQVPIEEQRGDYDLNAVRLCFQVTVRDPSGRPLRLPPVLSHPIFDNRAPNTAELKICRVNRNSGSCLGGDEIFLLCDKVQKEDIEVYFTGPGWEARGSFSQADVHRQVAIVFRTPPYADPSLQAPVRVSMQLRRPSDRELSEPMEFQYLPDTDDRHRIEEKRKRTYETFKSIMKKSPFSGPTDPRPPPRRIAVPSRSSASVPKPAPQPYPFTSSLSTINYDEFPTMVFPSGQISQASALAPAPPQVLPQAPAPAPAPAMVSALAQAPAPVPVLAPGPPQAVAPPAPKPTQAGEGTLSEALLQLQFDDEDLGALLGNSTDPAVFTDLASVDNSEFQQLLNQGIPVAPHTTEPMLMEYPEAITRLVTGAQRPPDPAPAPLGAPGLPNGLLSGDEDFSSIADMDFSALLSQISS
Experiment: cell-based or functional assay

Binder | IL-8 promoter driven firefly luciferase (FFluc), dual luciferase assay, Ovcar4 cells | decrease in IL-8 promoter driven firefly luciferase (FFluc), dual luciferase assay, Ovcar4 cells
B1 | ~2 fold | 
B2 |  | ~50%
B3 |  | ~50%
B4 |  | ~50%
